The text below walks through data of patent publication US20210122788A1.

The target in assay [1] is human BTLA Fc (human) (UniProt Q7Z6A9). Put plainly: SPR, BTLA Fc immobilised on CM5, bivalent fit.
Assay [2] shares this target. Put plainly: SPR, BTLA Fc immobilised on CM5, monovalent (Langmuir) fit.

In the assay with human BTLA Fc (human) [1], rhesus CMV UL144 Fc (Fc fusion) came in with a ka1 (bivalent analysis) of 16600 M⁻¹ s⁻¹, a kd1 (bivalent analysis) of 0.031 s⁻¹ and a kd2 (bivalent analysis) of 0.129 s⁻¹. In the assay with human BTLA Fc (human) [2], this substance displayed a Kd of 1300 nM, a koff of 0.0295 s⁻¹ and a kon of 22800 M⁻¹ s⁻¹.
